From publication PMC3597659 come the findings set out here.

Read-outs that look alike come from different tables or passages of the source.

The target in series [1] is T1, HMGB1-WT (Homo sapiens, UniProt P09429 2-215). Briefly: pull-down.
Series [2] has as its target T2, HMGB1-WT;RAG1c (core RAG1) (Homo sapiens;Mus musculus, UniProt P09429;P15919 2-215;384-1008, |). The series is described as follows: pull-down.
In series [3] the target is HMGB1-A488;RAG1c (core RAG1) (Homo sapiens;Mus musculus, UniProt P09429;P15919 2-215;384-1008, C23A;A34C;C45A;C106A|). The series is described as follows: fluorescence anisotropy. (Fluorescence polarisation rises when a labelled molecule tumbles more slowly, as on binding a larger partner.)
Chain of HMGB1-A488;RAG1c (core RAG1) (P09429 2-215 C23A/A34C/C45A/C106A, one chain of several): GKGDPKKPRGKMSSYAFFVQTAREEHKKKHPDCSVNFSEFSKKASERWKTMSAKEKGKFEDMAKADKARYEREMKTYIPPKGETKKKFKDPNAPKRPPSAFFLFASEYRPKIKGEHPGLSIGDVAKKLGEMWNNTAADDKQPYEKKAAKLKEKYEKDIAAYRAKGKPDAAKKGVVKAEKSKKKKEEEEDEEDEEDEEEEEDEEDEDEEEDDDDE
Series [4] has as its target HMGB1-A488 (Homo sapiens, UniProt P09429 2-215, C23A;A34C;C45A;C106A). Briefly: EMSA. For orientation: A gel shift assay detects complexes by their altered migration in electrophoresis.
In series [5] the target is T1, HMGB1-WT. Briefly: fluorescence anisotropy.
The target of series [6] is T3, RAG1c (core RAG1) (Mus musculus, UniProt P15919 384-1008).
T3 sequence: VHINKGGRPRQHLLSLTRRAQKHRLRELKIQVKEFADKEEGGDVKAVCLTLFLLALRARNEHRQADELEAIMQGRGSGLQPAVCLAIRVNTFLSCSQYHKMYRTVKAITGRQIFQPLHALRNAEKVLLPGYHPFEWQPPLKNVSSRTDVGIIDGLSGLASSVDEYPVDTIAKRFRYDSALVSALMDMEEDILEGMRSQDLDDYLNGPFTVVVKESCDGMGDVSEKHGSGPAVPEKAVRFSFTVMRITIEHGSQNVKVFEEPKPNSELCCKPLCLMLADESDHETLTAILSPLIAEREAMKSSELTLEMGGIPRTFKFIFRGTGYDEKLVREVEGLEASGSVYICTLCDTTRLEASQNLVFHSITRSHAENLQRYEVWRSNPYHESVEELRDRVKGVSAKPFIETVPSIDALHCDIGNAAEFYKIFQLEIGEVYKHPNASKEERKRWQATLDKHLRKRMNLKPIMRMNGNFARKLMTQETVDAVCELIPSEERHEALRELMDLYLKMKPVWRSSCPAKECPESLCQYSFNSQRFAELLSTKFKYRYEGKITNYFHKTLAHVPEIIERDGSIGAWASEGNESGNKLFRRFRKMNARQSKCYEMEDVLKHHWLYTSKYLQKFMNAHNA
The series is described as follows: fluorescence anisotropy.

The target of series [7] is T1, HMGB1-WT. The series is described as follows: fluorescence anisotropy. The source holds these as a separate data set.
Series [8] has as its target T3, RAG1c (core RAG1). Briefly: fluorescence anisotropy. This is another data set of the same source.
For series [9], the target named is T2, HMGB1-WT;RAG1c (core RAG1). The series is described as follows: pull-down. This is another data set of the same source.
In series [10] the target is HMGB1-WT;RAG1c (core RAG1);GST-RAG2c (core RAG2) (Homo sapiens;Mus musculus;Mus musculus, UniProt P09429;P15919;P21784 2-215;384-1008;1-387, ||). The series is described as follows: EMSA.
Chain of HMGB1-WT;RAG1c (core RAG1);GST-RAG2c (core RAG2) (P09429 2-215, chain 1 of 2): as the sequence (P09429 2-215 C23A/A34C/C45A/C106A, one chain of several) above, with A22C, C33A, A44C, A105C counted along it
Chain of HMGB1-WT;RAG1c (core RAG1);GST-RAG2c (core RAG2) (P21784 1-387, chain 3 of 2): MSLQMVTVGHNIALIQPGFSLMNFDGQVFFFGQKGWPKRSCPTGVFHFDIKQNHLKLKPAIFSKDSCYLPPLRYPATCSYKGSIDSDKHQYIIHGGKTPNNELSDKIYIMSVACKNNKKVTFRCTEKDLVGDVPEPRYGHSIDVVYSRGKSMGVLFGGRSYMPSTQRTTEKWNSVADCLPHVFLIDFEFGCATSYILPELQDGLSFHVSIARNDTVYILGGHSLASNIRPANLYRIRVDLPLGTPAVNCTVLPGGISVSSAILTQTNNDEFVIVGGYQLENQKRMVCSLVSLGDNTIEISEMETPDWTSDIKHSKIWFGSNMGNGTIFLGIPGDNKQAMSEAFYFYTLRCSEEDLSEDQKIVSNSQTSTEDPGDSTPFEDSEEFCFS

T1 sequence (P09429 2-215): as the sequence (P09429 2-215 C23A/A34C/C45A/C106A, one chain of several) above, with A22C, C33A, A44C, A105C counted along it
T2 sequence (P09429 2-215, one chain of several): as the sequence (P09429 2-215 C23A/A34C/C45A/C106A, one chain of several) above, with A22C, C33A, A44C, A105C counted along it
Chain of HMGB1-A488 (P09429 2-215 C23A/A34C/C45A/C106A): as the sequence (P09429 2-215 C23A/A34C/C45A/C106A, one chain of several) above

B1: 23SCR-biotin (dsDNA)
DNA 1: GCTGCGTCTCAAGTTACGCTGCGAGGAATCCTGGTAAGATCTGCGTTAAGTCGGATTCATCTACG
DNA 2: CGTAGATGAATCCGACTTAACGCAGATCTTACCAGGATTCCTCGCAGCGTAACTTGAGACGCAGC
As to B1, the binding result in series [1] and in series [2] was “binds” throughout.

B2: 23SCR (dsDNA)
DNA 1: B1 DNA 1
DNA 2: B1 DNA 2
For the molecule B2, the binding result in series [3] is listed as “binds”.

B3: four-way junction (4WJ) (structured_DNA)
DNA 1: CCTCCGTCCTAGCAAGGGGCTGCTACCGGAAGGG
DNA 2: CCCTTCCGGTAGCAGCCTGAGCGGTGGTTGAAGG
DNA 3: CCTTCAACCACCGCTCAACTCAACTGCAGTCTGG
DNA 4: CCAGACTGCAGTTGAGTCCTTGCTAGGACGGAGG
For B3, in series [4], the binding result is “binds”.

B4: 23MUT-A488 (dsDNA)
DNA 1: GATCTGGCCTGTCTTAACGCAGTATGGAAGCTCAATCTGAACTCTGTGTCTCTGATCGAGCGGAG
DNA 2: CTCCGCTCGATCAGAGACACAGAGTTCAGATTGAGCTTCCATACTGCGTTAAGACAGGCCAGATC
In general, Kd refers to the equilibrium constant for the complex coming apart. High values mean weaker binding, low ones tighter binding. In the case of B4, the Kd in series [5] was 66 nM; in series [6], 104 nM.

B5: 23MUT (dsDNA)
DNA 1: B4 DNA 1
DNA 2: B4 DNA 2
Take B5: the binding result in [3] is listed as “binds”.

B6: 23RSS-A488 (dsDNA)
DNA 1: GATCTGGCCTGTCTTACACAGTGATGGAAGCTCAATCTGAACTCTGACAAAAACCTCGAGCGGAG
DNA 2: CTCCGCTCGAGGTTTTTGTCAGAGTTCAGATTGAGCTTCCATCACTGTGTAAGACAGGCCAGATC
In the case of B6, the Kd in series [7] was found to be 57 nM; in series [8], 78 nM.

B7: 23RSS-biotin (dsDNA)
DNA 1: B6 DNA 1
DNA 2: B6 DNA 2
For B7, the binding result in series [9] is “binds”.

B8: 23RSS (dsDNA)
DNA 1: B6 DNA 1
DNA 2: B6 DNA 2
For B8, in [3], the binding result is “binds”.

B9: 32P-23RSS (dsDNA)
DNA 1: B6 DNA 1
DNA 2: B6 DNA 2
Regarding B9, the binding result in series [10] is “binds”.
